Measured values published in the DeepSol protein solubility set.

assay: soluble on expression in E. coli; label from the status in PepcDB or PDB records

Sequence	soluble on expression in E. coli
MDTHKVFVNRIINMRKIKLIGLDMDHTLIRYNSKNFESLVYDLVKERLAESFHYPEEIKKFKFNFDDAIRGLVIDSKNGNILKLSRYGAIRLSYHGTKQISFSDQKKIYRSIYVDLGDPNYMAIDTSFSIAFCILYGQLVDLKDTNPDKMPSYQAIAQDVQYCVDKVHSDGTLKNIIIKNLKKYVIREKEVVEGLKHFIRYGKKIFILTNSEYSYSKLLLDYALSPFLDKGEHWQGLFEFVITLANKPRFFYDNLRFLSVNPENGTMTNVHGPIVPGVYQGGNAKKFTEDLGVGGDEILYIGDHIYGDILRLKKDCNWRTALVVEELGEEIASQIRALPIEKKIGEAMAIKKELEQKYVDLCTRSIDESSQQYDQEIHDLQLQISTVDLQISRLLQEQNSFYNPKWERVFRAGAEESYFAYQVDRFACIYMEKLSDLLEHSPMTYFRANRRLLAHDIDIAAALEHHHHHH	soluble
MDTIAFAYMGGKEYEWLFFEVYDRVRRFYRDVRLPINIVYAGKIILPPGTLIRVETASGFVNMYSFEAVVEALYGKLVEMRDDVNDDSITKIFGITTFPIGSRDRYFDIYKKYLGIQVNVGDYHVLALSIKPFFTENKYLFIERVFKGVLHEIGHLYGLSHCHEDCVMNPPKDIKDWDLRTPTYCNTCLRKLKNKEELMPKLQLLEHHHHHH	soluble
MDTLQNMRAFSSVAQAGSFTAAAAVLDTTTANVSRAVSNLEAHLQTRLLNRTTRRIALTEAGKRYLLRCEQILASVEEAEAEASDAHARPAGQLKVHSMPGVGQHYVIDAIARYRRNHPDVAFDLTMTHRVPDLLEEGFDVSIVLASELADSGFVSQRLGITYSIVCASPEYVKTFGMAHKPADLLNHACLRLVSPVFPLDKWLFDGPEGQEMVTINSSPLLVNSADAMKTAISSGMGIGILPIYSAIEGLRNGTLVRVLSDYRSQELNLYAIYPSRQYLDAKIRTWVEYLRGSLPEILAADEADLHVQALKASC	not soluble
MDTQKLIEVLAREVLKEIAKRENQKLSENNEIISKKSVVTAFLGNDEVLKDELKKEASFMENIKLDSTWEEIGQCENKKRLVVSTLGINELIELSQGRKSVITEFLFNDGEVVLVEEGLEYKKYTKPAALINLYDGYLDKVREFGIKVVKRTEVKNVFCTKEKVYLKGLVTERRLRKLKLKNQTLEVDAKSKITSLAMDYIKENSIELCYERRQ	not soluble
MDTSKIVGEKIKALREDKSISIEELAQRSGLAIEQIERIENNIDIPSLAPLIKIARVLGVRLGTFLDDQDEIGPVVCRKKEAKDAISFSNNAIHSRKHMEYHSLSKSKADRHMEPFIIDVMPTEDSDFVLSSHEGEEFIMVMEGVMEISYGKNTYLLEEGDSIYYDSIVPHHVHAYEGQAAKILAVVYTPI	not soluble
MDVSYYDGPKDEVAEAMLKSAVTAMRLGQYEDGKGRLEEIMEFGTSNFQLLGTIYMYYGRVCRHLNHDAKALEFFEHELNMFKLIFNYPEACDSTRRIVEQALKMGKFPKARRFAEDLIDYTSNKKNGEKYIGQARILFASVCLEGCERDVESNQDEKKKLLSICAEQIAAVKLFNENNTEGAVSETKIMLLEAKCLSLDEKYEESRRKYQECIDFAIKTDQFEAVHIAYYDKALYAETDLLFFIIRDLRSALFYATKFGKERDVVKYKSKLSEEMLRNGEFHEAYLYGLEALVSIRKLGLNEYIGDVLLTIAKCLIALGKRRQAAYFIILGSVLTINQNSFKLFYEQIDVAMNQERSETATDQDVCLAIDSSPDPTSSNDMINKFVVELEHATNVETWEMIVNGIIDDQKKPVAIEKKENEEPVDMMDLIFSMSSRMDDQRTELPAARFIPPRPVSSASKKTTKSHRILPGLRANWTKVQSMKFDGHTMNRILKRSKKSKSSLDSTNSMQGDDTRSDDVTMTSK	not soluble
MDWHCVSPDGCERSEELQRIDRAYSTDYEWEFASTVDDSFEEYAMRILTDSLGSGCAWLYDLTLLGYNLQRSRQCYTVAGFELELSIPNEDPATFSEWVVVGRDIDVLGEE	not soluble
MDYCCVGRNNNDSVPREVTLLRVKTLMKMANHPRPGDIIQESLDELNVSLREFARAMEIAPSTASRLLTGKAALTPEMAIKLSVVIGSSPQMWLNLQNAWSLAEAEKTVVVSRLRRLVTQ	not soluble
MEAASIAVPGAGASLRAQALDALMTPAWADKLAAVAAIDAGAPVGAQQDLAEPAGLLGRPPAPQLVPPSQVRQRSVQSPEGRAALLHALAHIEFNAINLALDAVWRYGGLPDAYYLDWLKVAREEAYHFDLLNRHLSGLGHAYGDFPAHNGLWEMAEKTRADLLARLALVPRTLEARGLDASPLIRDKLAAAGDADGAAILEIILRDEIGHVAIGNHWYKALCAQRGLDPVAQYAQLASRYGAPRLRGPFNLEARRAAGFDEDELRALLQALEHHHHHH	not soluble
MEAHGSARLSRKRKRDGSNGEPEEGEKPLKFKRCTVGLKYPAPYADQLESMEDKQYQRVTIEEARRGTPPDRPVRVYADGIFDMFHSGHARALMQAKCLFPNTHLIVGVCSDDLTHKLKGFTVMNEDERYDAVSHCRYVDEVVRNAPWTLTPEFLTKHRIDFVAHDDIPYSSADSDDVYKHIKDAGMFAPTQRTEGISTSDIITRIVRDYDVYVRRNLQRGYTAKELNVSFINEKKYNLQERVDKVKKKVKDVEEKSKEFVQKVEEKSIDLIQKWEEKSREFIGNFLQMFGPEGALKHMLKEGKGRMLQAISPRQSPSSSPTRERSPSPTFRLPFFNKTSTPSSPSSHHSSALSGYTYAARGQAISEDEEDDED	soluble
MEALNKKLFRLNSKEKIQKSTGTFVPDLPNGSFLKENGSMELLNDYFFKNKDIYISKHNRFADYPYHTHQFLELNYMYSGSSEQVIEGNKETLHEGELLLLDSACHHSIKATGEKDILINILFRDQQISLEWLTSIKKKNSLLFDFLLHSSVSEQSLKKYIIFQSAQIPHIQQFLNQIITEYFLEEEFSSRIITLYLPILFTELVRKCDTYLADDLTSAQSSTTSTMLEVIKLIESNYRTITLTSAADTLGYNKNYLSNFIKKNTNFTFTELVNKQKMLAANLLIETTSTPIELIIEKVGFSNKTYFYSLYKKTFNLLPNEVRNKK	not soluble
MEALRSAPRAAHFLPMELQSSGERSPPREGAPVGTGATAGETPSAAPSGTPLWIPPRLATLDEVTLCHNIHRYRCFIEEGTALLPPLKTDVYCNGKTSSIATRLSVGAVVDAARRALSGSPAFAFCLVRPPGHHASADTPSGFCLVNNVAIAAMQLLQDWHVKYDCGVGGSRSVPSEERDIPERPRIAIVDIDVHHGEGTQSFVEVEPQLLYLSLHRYDRGSFYPCDPAGATSYVGQHRNICNVAVDTAATDPARCEEVISDMLFARVVDDVFLPRLEQFHPNIILLSLGFDAAHGDPLGRMAVEGGFAYVVRALKRFCLQSQGTIGLVAVLEGGYSPEGVSRGVVSVAHALCYPFDDVAVVNYARLRTPKTWMELRSRLSRRMEVRTDETGGATSLSSGLSSQGLGDATSTERAIAD	not soluble
MEATNKMKVEVWSDIMCPFCYIGKRNYEAGLKQFADSNNIEIIWKSFQLDPNIPQDTAVTENVYQYLAERKGMSYEQSVQMHDSVVATAKKAGLDYNFDKAVIANSFNAHRMIQLAKTKDLGDAAEERLFYAYFTEGKNVGNSYVLIELGKDIGLTEAEVQTALTDDTYAYKVRQDVEEAQHLGVRGVPFFVFDRKYAVSGAQPPQAFLETLEKSFSEWRKEHPASPFEVSEGPSCSVDGCD	not soluble
MEDYLVKALCYKGSIRAYAISATETVSEAQRRHDTWSSSTAALGRTLIGALLLGATLKGDDKLTVKVQGNGPAGAIIVDSNGRGETKGYIKNPHVSLKLNATGKIDVRGAVGNEGIFTVIKDLGLKETFSGQTPIVSGEIGEDFTYFMAVSEQVPSAIGLGVLVDTDESVKAAGGFMIQVMPGADESTIDFIEQRLAEVPPISQLLENGETPEQVLYRLLGEDEVEILEKMPVQFKCDCSKEKFATALIAVGIDELNAMIDEDHGAEAVCQFCNNKYHYSEEELIELRDEAIRNTKQK	not soluble
MEEAKNMALLFFMDHLMQKNGRRTIHDLSCQFGARGFSEEMRNAVGTTQEGLTEFLQGHPSLFTVEGDQVILNGHNDLNAKNNPLLQSGIRSRNYEKEAVDFFVTKLTKFGPELQIKSLLGHRSQAAPEVRLVSGRHLKEFCEFLQSQVDYFVVEGDRVRLKNMPEPDENAIEMDDEGRPLAGVKAKQAAVEYLKSVLEQNEDQPIPLDQFYQNFCQRFSHTIRQDVATNPKELLQFLKLNRGLFFIRSNKVSLVKNRLNEDGSENGSDEGEETNNNGMFPLDQSALTRIHFVKALKPAQDLISRLWQDINNMEKKVVGLDLKTVTVGVDGEIFLSLGVIATTSQIGIFDLASSDVIILESGFKGILESEKVVKVIHDARRVASLLAHKYAVHMRNVFDTQVAHSLLQHEKFNKSLNEMRPISFINLQRVYYPQSIMLSDVTPRKMSMCPNWGVRPITEEFQLTIVEEAHCLLSALYQSLSNLIPVHLRGVFEDKCIEVNHPEVLLASPNRPPPQPFISSPYRASTRRDVRNGGSIMQSFSPAPYAAAPRPQMSDACTQTFSTGDIEVLNVFYE	not soluble
MEEHPRAWIISVGNELLIGRTINTNAAWLGSRLTLLGFEVERVVTVPDRVEDIAEEVGRALGRARVVITTGGLGPTYDDVTLQGVAMALGRGLKLHPGALEMVRRFYSKRGLGLTEDRVKMAMLPDGAEPLENPVGAAPGAVVEARGSLVASLPGVPSEMEAMFEKALRPLLEEIAPPGAVVECGIAVVGVPESSLAPYIKEASRVSPRVYVKSHPQGSEIGKPLVRVRVLARASTLEEARAEALKALEKVRRGVEELGGSISEEDSC	soluble
MEEHYYVSIDIGSSSVKTIVGEKFHNGINVIGTGQTYTSGIKNGLIDDFDIARQAIKDTIKKASIASGVDIKEVFLKLPIIGTEVYDESNEIDFYEDTEINGSHIEKVLEGIREKNDVQETEVINVFPIRFIVDKENEVSDPKELIARHSLKVEAGVIAIQKSILINMIKCVEACGVDVLDVYSDAYNYGSILTATEKELGACVIDIGEDVTQVAFYERGELVDADSIEMAGRDITDDIAQGLNTSYETAEKVKHQYGHAFYDSASDQDIFTVEQVDSDETVQYTQKDLSDFIEARVEEIFFEVFDVLQDLGLTKVNGGFIVTGGSANLLGVKELLSDMVSEKVRIHTPSQMGIRKPEFSSAISTISSSIAFDELLDYVTINYHDNEETEEDVIDVKDKDNESKLGGFDWFKRKTNKKDTHENEVESTDEEIYQSEDNHQEHKQNHEHVQDKDKDKEESKFKKLMKSLFE	not soluble
MEEKKALRNRIKKLLRSQPEQQRKEGSQRVADILFSLPEWNEAHAIGITISLPHEVQTELIISRGWEEGKQIAVPRVKKGTTQMTFYEIHSFSVLEDTFFGLREPKPSECRQIDGQELDLLLVPGVAFDQKGNRLGYGGGYYDRFLHSYKGKTIALAYSQQLVESVPTDERDERVQMIVTERGVYRLEHHHHHH	soluble
MEETKRLQKVYQLFAESTTERIPTDRLVDVLRFAGYIISESYIGELLSSIPGETLDFGQLVDVCERIREREITREELQNSFRRLDVDNTSYIDAGRLVQILSSGENRFSDEEIEELLNILNPDGDGKICYDLVIKNIFGY	not soluble
MEFAKMCFEKLYGVDTSEAKEMYNSVYDVMKAMLKEYTVIFKGPNTQSSQSNPPSSTAARDIFACELAEDSNVEFERMDRSYKEMVNEIRVTDPKDELDIYLKAEVENPKTLPGMEWDVLSWWRLNSQKYPVLSEIARDVLAMQVSYVASESAFSTSGRLLEPSRSCLTHYMVETLVCLEQWLKSEIKLSENTFLTNTQLLADIELLDKLEKGNFIYVVY	soluble
MEFGRNPLSMTSTKPTLLNVLDDVGEAALHAIPKVDDITSHKIYVIAVQPVSFSDIESQAVKQDASSPNNCCCSCMHGVLRFFAELCCNCCAGCVQGICQG	not soluble
